Consider 23 molecules from patent US20140105889A1 (published 2014).

Numbering of substitutions follows the chain as printed. Names and notes keep the numbering of the source.

Test [1] concerns the target T1, human FcγRIIIa(F) (human, UniProt P08637 17-208, limits assumed).
T1 construct: also called FcgRIIIaF; hFcgRIIIa(F)
The test can be described thus: SPR (Biacore T100), antibody captured by Protein A, FcγR as analyte, HBS-EP+, 25°C, 1:1 Langmuir global fit. A general note: In SPR one partner is held on a chip, and binding of the other changes the refractive index at the surface.

The target of test [2] is T1, human FcγRIIIa(F). Briefly: SPR (Biacore T100), ratio of the KD values of Table 24, reference IgG1 (IL6R-G1d/IL6R-L).
Test [3] addresses T1, human FcγRIIIa(F). Briefly: SPR (Biacore T100), antibody captured by Protein A, FcγR as analyte, 25°C; weak binding, KD calculated by Equation 5 (1:1 binding model).
Test [4] concerns the target T2, mouse FcγRIV (mouse).
T2 construct: Bought soluble receptor; also called mFcgRIV; mFcgR IV
The test can be described thus: SPR (Biacore), antibody captured on Protein L, mouse FcγR as analyte, pH 7.4, 25 C.

Test [5] concerns the target T2, mouse FcγRIV. The test can be described thus: SPR (Biacore), antibody captured on Protein L, mouse FcγR as analyte, pH 7.4, 25 C (method of Example 4, RU).
Test [6] deals with T3, human FcγRIIIa(F) (human, UniProt P08637 17-208, limits assumed).
T3 construct: also called hFcgRIIIa(F); hFcgRIIIa
The test can be described thus: SPR (Biacore), antibody captured on Protein L, human FcγR as analyte, pH 7.4, 25 C.

For test [7], the target named is T3, human FcγRIIIa(F). Described as above. The source holds these as a separate data set.
Test [8] addresses T4, human FcRn (human).
T4 construct: Soluble human FcRn complexed with beta2-microglobulin; also called hFcRn; soluble human FcRn complexed with β2-microglobulin
The test can be described thus: SPR (Biacore), pH 7.0, 25 C; antibody captured on Protein L, human FcRn injected.

Test [9] deals with T5, human FcRn (soluble human FcRn complexed with β2-microglobulin) (human, UniProt P61769 21-119).
T5 construct: also called hFcRn
The test can be described thus: Biacore SPR, pH 7.0, 25 C; antibody captured by Protein L, human FcRn as analyte.

The target of test [10] is T6, human FcγRIIIa(F) (human, UniProt P08637 17-208, limits assumed).
T6 construct: also called hFcgRIIIa(F); allotype F158
The test can be described thus: SPR (Biacore), antibody captured on Protein L, human FcgR as analyte, pH 7.4, 25 C; amount normalised to captured antibody.

Another test deals with T7, human FcγRIIb (human, UniProt P31994 43-217, limits assumed).
T7 construct: also called hFcgRIIb; FcγIIB
T7 sequence: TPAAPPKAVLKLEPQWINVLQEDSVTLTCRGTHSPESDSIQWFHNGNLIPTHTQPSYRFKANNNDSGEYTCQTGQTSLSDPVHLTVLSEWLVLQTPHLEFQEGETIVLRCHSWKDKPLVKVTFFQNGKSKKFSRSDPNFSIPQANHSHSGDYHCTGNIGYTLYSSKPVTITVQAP
Described as above.

Test [11] has as its target T8, human FcRn (soluble human FcRn complexed with beta2-microglobulin) (human, UniProt P61769 21-119).
T8 construct: also called hFcRn
The test can be described thus: SPR (Biacore), pH 7.0, 25 C, antibody captured by Protein L, human FcRn as analyte.

The target of test [12] is T4, human FcRn. Briefly: SPR (Biacore), pH 7.0, 25 C; antibody captured on Protein L, human FcRn injected. This is another data set of the same source.
For test [13], the target named is T9, human FcRn (human).
T9 construct: Soluble human FcRn complexed with β2-microglobulin; also called hFcRn; soluble human FcRn complexed with β2-microglobulin
The test can be described thus: SPR (Biacore), antibody captured by Protein L, human FcRn as analyte, pH 7.0.

For test [14], the target named is T9, human FcRn. The description is as above. The source holds these as a separate data set.

By Kd is commonly meant the free concentration of one partner at which half of the binding sites on the other are occupied at equilibrium, for simple one-to-one binding.

T2 sequence (A0A0B4J1G0 21-203): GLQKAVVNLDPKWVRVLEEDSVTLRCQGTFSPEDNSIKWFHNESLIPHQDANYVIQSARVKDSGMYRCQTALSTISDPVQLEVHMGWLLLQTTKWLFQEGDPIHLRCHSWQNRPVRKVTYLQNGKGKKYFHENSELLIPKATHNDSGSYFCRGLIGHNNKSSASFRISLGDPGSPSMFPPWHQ
T5 sequence (chain, as listed by the source limits assumed, chain 1 of 2): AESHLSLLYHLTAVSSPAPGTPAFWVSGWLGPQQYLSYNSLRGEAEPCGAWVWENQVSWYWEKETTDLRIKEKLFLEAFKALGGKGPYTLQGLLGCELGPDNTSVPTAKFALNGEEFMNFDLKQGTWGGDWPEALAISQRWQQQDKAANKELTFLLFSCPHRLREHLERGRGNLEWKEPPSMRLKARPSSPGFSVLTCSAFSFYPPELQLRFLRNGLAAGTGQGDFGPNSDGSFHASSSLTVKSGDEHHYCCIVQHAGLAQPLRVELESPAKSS
T5 sequence (P61769 21-119 limits assumed, chain 2 of 2): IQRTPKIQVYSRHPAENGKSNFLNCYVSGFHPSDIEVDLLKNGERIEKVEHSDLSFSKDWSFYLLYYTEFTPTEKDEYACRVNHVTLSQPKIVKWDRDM
T8 sequence (chain, as listed by the source limits assumed, chain 1 of 2): as the sequence (chain, as listed by the source limits assumed, chain 1 of 2) above
T8 sequence (P61769 21-119 limits assumed, chain 2 of 2): as the sequence (P61769 21-119 limits assumed, chain 2 of 2) above

B1: IgG1 (IL6R-G1d / IL6R-L) (antibody)
heavy: not shown
light: DIQMTQSPSSLSASVGDRVTITCRASQDISSYLNWYQQKPGKAPKLLIYYTSRLHSGVPSRFSGSGSGTDFTFTISSLQPEDIATYYCQQGNTLPYTFGQGTKVEIK
notes: Anti-human IL-6 receptor antibody; G1d constant region (IgG1 without C-terminal Gly and Lys); L chain of tocilizumab
In the test with human FcγRIIIa(F) [1], B1 displayed a Kd of 3.1 µM.

B2: IgG1-v1 (IL6R-G1d_v1 / IL6R-L) (antibody)
heavy: not shown
light: B1 light
notes: IL6R-G1d with P238D (EU numbering)
In the case of B2, in the test with human FcγRIIIa(F) [2], the “relative KD (KD of IgG1 / KD of the variant)” value amounted to 0.061 fold. The Kd in the test with human FcγRIIIa(F) [3] was 51 µM.

B3: IgG1-v2 (IL6R-G1d_v2 / IL6R-L) (antibody)
heavy: not shown
light: B1 light
notes: IL6R-G1d with L328E (EU numbering)
B3: the “relative KD (KD of IgG1 / KD of the variant)” value with human FcγRIIIa(F) [2] came to 0.14 fold. Also, the Kd with human FcγRIIIa(F) [3] was 23 µM.

B4: IgG1-v3 (IL6R-G1d_v3 / IL6R-L) (antibody)
heavy: not shown
light: B1 light
notes: IL6R-G1d with S267E/L328F (EU numbering)
Turning to B4, the “relative KD (KD of IgG1 / KD of the variant)” value with human FcγRIIIa(F) [2] worked out at 0.35 fold. Further, the Kd in the test with human FcγRIIIa(F) [1] turned out to be 8.8 µM.

B5: antibody with VH3-IgG1-F947 heavy chain and L(WT)-CK light chain (antibody)
heavy: QVQLQESGPGLVKPSETLSLTCAVSGHSISHDHAWSWVRQPPGEGLEWIGFISYSGITNYNPSLQGRVTISRDNSKNTLYLQMNSLRAEDTAVYYCARSLARTTAMDYWGEGTLVTVSSASTKGPSVFPLAPSSKSTSGGTAALGCLVKDYFPEPVTVSWNSGALTSGVHTFPAVLQSSGLYSLSSVVTVPSSSLGTQTYICNVNHKPSNTKVDKKVEPKSCDKTHTCPPCPAPELLGGPSVFLFPPKPKDVLYISRTPEVTCVVVDVSHEDPEVKFNWYVDGVEVHNAKTKPREEQYNSTYRVVSVLQPLHADWLNGKEYKCKVSNKALPAPIEKTISKAKGQPREPQVYTLPPSRDELTKNQVSLTCLVKGFYPSDIAVEWESNGQPENNYKTTPPVLDSDGSFFLYSKLTVDKSRWQQGNVFSCSVMHEALHYHVTQKSLSLSP
light: not shown
notes: copies: 2 + 2
Regarding B5, in the test with mouse FcγRIV [4], the “BINDING AMOUNT (RU)” value amounted to 242 RU. Besides, the “BINDING AMOUNT” value with mouse FcγRIV [5] is 279.

B6: VH3/L(WT)-IgG1-F698 (antibody, name in EU numbering)
heavy: B5 heavy with V252T, N288E, P310V, V438Y
light: not shown
notes: The positions are EU numbering, not positions on the entry; copies: 2 + 2
For B6, the “BINDING AMOUNT (RU)” value with human FcγRIIIa(F) [6] and with human FcγRIIIa(F) [7] was 55.9 RU throughout.

B7: IgG1-F802 (antibody)
heavy: B5 heavy with V252T, Q309T, P310V, A313Q, N317V, V438Y
light: not shown
notes: Substitutions by EU numbering; copies: 2 + 2
On to B7, for which binding in the test with human FcRn [8] was put at a Kd of 0.33 µM.

B8: IgG1-F197 (antibody, name in EU numbering)
heavy: B5 heavy with V252T, Y254M, P259T, P310V, A313Q, M430L, V438Y
light: not shown
notes: VH3-IgG1 Fc variant; EU numbering
The molecule B8 registered a Kd in test [9] of 0.033 µM.

B9: IgG1-F185 (antibody, name in EU numbering)
heavy: B5 heavy with V252T, Y254W, Q309T, P310V, A313Q, I334V, V438Y
light: not shown
notes: as for B8
B9 displayed a Kd in test [9] of 0.26 µM.

B10: antibody containing VH3-IgG1-F1324 for the heavy chain and L(WT)-CK for the light chain (antibody)
heavy: B5 heavy with L236A, L237A, V252T, Q309T, P310V, A313Q
light: not shown
Consider B10, for which the “BINDING AMOUNT (RU)” value with human FcγRIIIa(F) [10] was found to be 5.83 RU; in the test with human FcγRIIb, 3.85 RU.

B11: VH3/L(WT)-IgG1-F763 (antibody, name in EU numbering)
heavy: B5 heavy with L237R, S241K, V252T, N288E, P310V, V438Y
light: not shown
notes: as for B6
Turning to B11, in the test with human FcγRIIIa(F) [6], the “BINDING AMOUNT (RU)” value was -2.9 RU.

B12: antibody with VH3-IgG1-F1326 heavy chain and L(WT)-CK light chain (antibody)
heavy: B5 heavy with L236A, L237A
light: not shown
notes: copies: 2 + 2
As for B12, the “BINDING AMOUNT” value with mouse FcγRIV [5] came to 85.6.

B13: IgG1-F1031 (antibody, name in EU numbering)
heavy: B5 heavy with G238A, S241D, P310V, I334E
light: not shown
Molecule B13 came in with a Kd in test [11] of 0.053 µM.

B14: IgG1-F1039 (antibody, name in EU numbering)
heavy: B5 heavy with L237K, P240D, S241K, V252T, Q309T, P310V, A313Q
light: not shown
Take B14: the Kd in test [11] was determined as 0.13 µM.

B15: VH3/L(WT)-IgG1-F699 (antibody, name in EU numbering)
heavy: B5 heavy with S241K, V252T, N288E, P310V, V438Y
light: not shown
notes: as for B6
On to B15, for which the “BINDING AMOUNT (RU)” value in the test with human FcγRIIIa(F) [7] was -2 RU.

B16: antibody containing VH3-IgG1-F1326 for the heavy chain and L(WT)-CK for the light chain (antibody)
heavy: B5 heavy with L236A, L237A
light: not shown
Consider B16, for which the “BINDING AMOUNT (RU)” value is 9.51 RU in the test with human FcγRIIIa(F) [10] and 5.46 RU in the test with human FcγRIIb.

B17: IgG1-F755 (antibody)
heavy: B5 heavy with P240D, V252S, Q309T, P310V, A313Q, V438Y
light: not shown
notes: as for B7
Regarding B17, the Kd with human FcRn [12] came out at 0.35 µM.

B18: IgG1-F791 (antibody)
heavy: B5 heavy with V252T, Q309T, P310V, A313Q, N317F, V438Y
light: not shown
notes: as for B7
B18 registered a Kd in the test with human FcRn [8] of 0.44 µM.

B19: IgG1-F770 (antibody)
heavy: B5 heavy with V252T, T258A, Q309T, P310V, A313Q, V438Y
light: not shown
notes: as for B7
Turning to B19, the affinity in the test with human FcRn [12], expressed as Kd, was 0.3 µM.

B20: IgG1-F1339 (antibody, name in EU numbering)
heavy: QVQLQESGPGLVKPSETLSLTCAVSGHSISHDHAWSWVRQPPGEGLEWIGFISYSGITNYNPSLQGRVTISRDNSKNTLYLQMNSLRAEDTAVYYCARSLARTTAMDYWGEGTLVTVSSASTKGPSVFPLAPSSKSTSGGTAALGCLVKDYFPEPVTVSWNSGALTSGVHTFPAVLQSSGLYSLSSVVTVPSSSLGTQTYICNVNHKPSNTKVDKKVEPKSCDKTHTCPPCPAPELRGGPKVFLFPPKPKDTLYITREPEVTCVVVDVSHEDPEVKFNWYVDGVEVHNAKTKPREEQYNSTYRVVSVLTVLHQDWLNGKEYKCKVSNKALPAPIEKTISKAKGQPREPQVYTLPPSRDELTKNQVSLTCLVKGFYPSDIAVEWESNGQPENNYKTTPPVLDSDGSFFLYSKLTVDKSRWQQGNVFSCSVMHEALDYHTTKKELSLSP
light: not shown
notes: light chain L(WT)-CK; copies: 2 + 2
The molecule B20 yielded a Kd with human FcRn [13] of 0.251 µM.

B21: IgG1-F1364 (antibody, name in EU numbering)
heavy: B20 heavy with T256S, D435H, T438F
light: not shown
notes: as for B20
Consider B21, for which, in the test with human FcRn [14], the affinity, expressed as Kd, was 0.0749 µM.

B22: IgG1-F1369 (antibody, name in EU numbering)
heavy: B20 heavy with D435H, T438F, K440R
light: not shown
notes: as for B20
Regarding B22, in the test with human FcRn [14], the Kd turned out to be 0.076 µM.

B23: IgG1-F1340 (antibody, name in EU numbering)
heavy: B20 heavy with D435H, T438V
light: not shown
notes: as for B20
As for B23, in the test with human FcRn [13], binding was characterised by a dissociation constant (Kd) of 0.0558 µM.
